From publication doi:10.1101/2023.11.01.565136

Target: T1, Full-length human E6AP (E6-associated protein) (human), Q05086
T1 chain: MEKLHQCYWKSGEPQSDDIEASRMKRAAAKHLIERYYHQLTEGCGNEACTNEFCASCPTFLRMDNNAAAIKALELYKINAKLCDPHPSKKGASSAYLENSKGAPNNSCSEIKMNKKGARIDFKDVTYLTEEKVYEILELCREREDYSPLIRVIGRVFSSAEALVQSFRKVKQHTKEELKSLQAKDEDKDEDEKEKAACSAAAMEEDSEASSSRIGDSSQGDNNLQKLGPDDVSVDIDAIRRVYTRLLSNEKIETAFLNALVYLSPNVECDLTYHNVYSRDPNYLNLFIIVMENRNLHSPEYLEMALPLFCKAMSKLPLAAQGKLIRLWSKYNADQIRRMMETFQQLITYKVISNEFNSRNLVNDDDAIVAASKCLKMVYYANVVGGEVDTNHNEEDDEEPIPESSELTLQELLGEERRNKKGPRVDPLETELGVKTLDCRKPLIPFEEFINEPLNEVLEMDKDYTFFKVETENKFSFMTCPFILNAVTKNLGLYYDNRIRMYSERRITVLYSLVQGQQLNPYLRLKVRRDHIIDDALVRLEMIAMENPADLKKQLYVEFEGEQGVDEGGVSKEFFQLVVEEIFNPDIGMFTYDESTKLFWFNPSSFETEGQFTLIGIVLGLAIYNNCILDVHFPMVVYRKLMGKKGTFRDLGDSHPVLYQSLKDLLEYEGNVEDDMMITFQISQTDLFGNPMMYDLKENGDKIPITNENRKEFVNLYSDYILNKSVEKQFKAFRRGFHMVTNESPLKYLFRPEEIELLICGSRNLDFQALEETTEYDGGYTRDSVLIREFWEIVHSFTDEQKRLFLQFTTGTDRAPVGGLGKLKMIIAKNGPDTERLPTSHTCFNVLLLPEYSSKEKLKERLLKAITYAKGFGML
Assay: mass photometry
Details: remark: other sources report otherwise

- stoichiometry N: 2
B1: Full-length human E6AP (E6-associated protein), Q05086 1-875 (enzyme)
chain: T1 chain
